From article PMC6610660 (Structure (London, England : 1993), 2019) come the findings set out here.

The target in series [1] is ScNatA/Naa50 (Saccharomyces cerevisiae, UniProt P07347+P12945+Q08689). Put plainly: X-ray crystal structure, […] Å. Type of series: binding. To be noted: site between Naa10 and Naa15.
In series [2] the target is GST-ScNaa50 (Saccharomyces cerevisiae, UniProt Q08689). Put plainly: ITC. In kind it is binding. To be noted: 20 °C, pH 7.0, 200 mM NaCl, 1 mM DTT; GST fusion, free GST negative.
Sequence of GST-ScNaa50 (Q08689 whole entry, the tested form may be a part): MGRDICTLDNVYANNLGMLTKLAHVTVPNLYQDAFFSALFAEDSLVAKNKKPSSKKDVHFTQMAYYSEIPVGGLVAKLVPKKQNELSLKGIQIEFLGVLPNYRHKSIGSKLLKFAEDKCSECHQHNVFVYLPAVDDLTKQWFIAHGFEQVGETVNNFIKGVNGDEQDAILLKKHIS
Series [3] concerns the target T1, SpNatA (Schizosaccharomyces pombe, UniProt O74985+Q9UTI3).
T1 sequence (Q9UTI3 1-156): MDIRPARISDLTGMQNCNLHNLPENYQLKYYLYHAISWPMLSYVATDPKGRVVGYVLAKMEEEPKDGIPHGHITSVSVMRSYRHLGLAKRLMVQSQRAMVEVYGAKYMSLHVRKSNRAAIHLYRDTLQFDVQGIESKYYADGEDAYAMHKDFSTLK
T1 sequence (O74985 1-729): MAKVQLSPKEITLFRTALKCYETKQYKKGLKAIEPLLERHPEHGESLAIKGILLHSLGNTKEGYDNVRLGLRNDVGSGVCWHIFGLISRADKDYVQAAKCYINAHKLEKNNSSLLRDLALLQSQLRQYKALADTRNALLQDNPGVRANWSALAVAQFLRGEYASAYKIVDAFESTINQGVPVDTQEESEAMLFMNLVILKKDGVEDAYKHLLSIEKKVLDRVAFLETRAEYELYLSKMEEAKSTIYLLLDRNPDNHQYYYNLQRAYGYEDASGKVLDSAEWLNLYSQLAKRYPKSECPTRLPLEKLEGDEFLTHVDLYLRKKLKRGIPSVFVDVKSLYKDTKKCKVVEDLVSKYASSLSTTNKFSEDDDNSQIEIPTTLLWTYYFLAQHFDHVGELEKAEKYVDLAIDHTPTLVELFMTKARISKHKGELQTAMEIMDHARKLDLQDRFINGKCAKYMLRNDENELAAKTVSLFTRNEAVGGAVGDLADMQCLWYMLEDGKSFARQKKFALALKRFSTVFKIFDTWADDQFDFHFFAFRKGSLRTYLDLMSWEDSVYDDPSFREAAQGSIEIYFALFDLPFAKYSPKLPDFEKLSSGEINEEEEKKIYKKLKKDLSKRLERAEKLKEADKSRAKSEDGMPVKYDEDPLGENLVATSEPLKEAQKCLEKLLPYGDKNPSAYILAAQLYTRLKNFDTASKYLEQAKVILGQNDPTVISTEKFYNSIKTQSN
Put plainly: ITC. In kind it is binding. To be noted: 20 °C, pH 7.0, 200 mM NaCl, 1 mM DTT; Naa10 site.

Series [4] has as its target Schizosaccharomyces pombe Naa50 (S. pombe). As to the kind of experiment: differential scanning fluorimetry.
The target of series [5] is Schizosaccharomyces pombe Naa50 labeled with Fluorescein-5-Maleimide (S. pombe). Put plainly: fluorescence polarisation. Background: Polarisation of emitted light reports the rotation of a fluorescent probe.
Series [6] has as its target T2, human Naa50 (human, UniProt Q9GZZ1 1-169).
T2 sequence: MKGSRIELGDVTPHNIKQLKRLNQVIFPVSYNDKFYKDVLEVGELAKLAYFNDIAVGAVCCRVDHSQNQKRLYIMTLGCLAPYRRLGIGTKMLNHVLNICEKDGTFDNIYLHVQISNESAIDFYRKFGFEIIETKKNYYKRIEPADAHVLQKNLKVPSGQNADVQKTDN
As to the kind of experiment: differential scanning fluorimetry.

Sequence of ScNatA/Naa50 (Q08689 whole entry, one chain of several, the tested form may be a part): as the sequence (Q08689 whole entry, the tested form may be a part) above

Regarding `O=P(O)(O)O[C@H]1[C@H](OP(=O)(O)O)[C@@H](OP(=O)(O)O)[C@H](OP(=O)(O)O)[C@@H](OP(=O)(O)O)[C@H]1OP(=O)(O)O` [IP6], in series [1], the “X-ray crystal structure, 2.7 Å” value is “Clear electron density for IP6 was visible between Naa10 and Naa15”.

With `CC(=O)SCCNC(=O)CCNC(=O)[C@H](O)C(C)(C)COP(=O)(O)OP(=O)(O)OC[C@H]1O[C@@H](n2cnc3c(N)ncnc32)[C@H](O)[C@@H]1OP(=O)(O)O` [acetyl-CoA], the ITC result in series [2] was “binding signal was detected by ITC between GST-ScNaa50 and acetyl-CoA”. The dissociation constant entry in series [3] was “Representative ITC curve of acetyl-CoA titrated into SpNatA. The calculated dissociation constant is indicated”.

B1: Schizosaccharomyces pombe NatA (SpNaa15/SpNaa10 complex), wild type (complex)
chain 1: MAKVQLSPKEITLFRTALKCYETKQYKKGLKAIEPLLERHPEHGESLAIKGILLHSLGNTKEGYDNVRLGLRNDVGSGVCWHIFGLISRADKDYVQAAKCYINAHKLEKNNSSLLRDLALLQSQLRQYKALADTRNALLQDNPGVRANWSALAVAQFLRGEYASAYKIVDAFESTINQGVPVDTQEESEAMLFMNLVILKKDGVEDAYKHLLSIEKKVLDRVAFLETRAEYELYLSKMEEAKSTIYLLLDRNPDNHQYYYNLQRAYGYEDASGKVLDSAEWLNLYSQLAKRYPKSECPTRLPLEKLEGDEFLTHVDLYLRKKLKRGIPSVFVDVKSLYKDTKKCKVVEDLVSKYASSLSTTNKFSEDDDNSQIEIPTTLLWTYYFLAQHFDHVGELEKAEKYVDLAIDHTPTLVELFMTKARISKHKGELQTAMEIMDHARKLDLQDRFINGKCAKYMLRNDENELAAKTVSLFTRNEAVGGAVGDLADMQCLWYMLEDGKSFARQKKFALALKRFSTVFKIFDTWADDQFDFHFFAFRKGSLRTYLDLMSWEDSVYDDPSFREAAQGSIEIYFALFDLPFAKYSPKLPDFEKLSSGEINEEEEKKIYKKLKKDLSKRLERAEKLKEADKSRAKSEDGMPVKYDEDPLGENLVATSEPLKEAQKCLEKLLPYGDKNPSAYILAAQLYTRLKNFDTASKYLEQAKVILGQNDPTVISTEKFYNSIKTQSN
chain 2: MDIRPARISDLTGMQNCNLHNLPENYQLKYYLYHAISWPMLSYVATDPKGRVVGYVLAKMEEEPKDGIPHGHITSVSVMRSYRHLGLAKRLMVQSQRAMVEVYGAKYMSLHVRKSNRAAIHLYRDTLQFDVQGIESKYYADGEDAYAMHKDFSTLK
B1 came in with a melting temperature of NatA with Naa50 added (NatA alone 37.8 °C) in series [4] of 40.4 °C. In addition, the Kd in series [5] was determined as 17 nM.

B2: human NatA (hNaa15/hNaa10 complex), wild type (complex)
chain 1: MPAVSLPPKENALFKRILRCYEHKQYRNGLKFCKQILSNPKFAEHGETLAMKGLTLNCLGKKEEAYELVRRGLRNDLKSHVCWHVYGLLQRSDKKYDEAIKCYRNALKWDKDNLQILRDLSLLQIQMRDLEGYRETRYQLLQLRPAQRASWIGYAIAYHLLEDYEMAAKILEEFRKTQQTSPDKVDYEYSELLLYQNQVLREAGLYREALEHLCTYEKQICDKLAVEETKGELLLQLCRLEDAADVYRGLQERNPENWAYYKGLEKALKPANMLERLKIYEEAWTKYPRGLVPRRLPLNFLSGEKFKECLDKFLRMNFSKGCPPVFNTLRSLYKDKEKVAIIEELVVGYETSLKSCRLFNPNDDGKEEPPTTLLWVQYYLAQHYDKIGQPSIALEYINTAIESTPTLIELFLVKAKIYKHAGNIKEAARWMDEAQALDTADRFINSKCAKYMLKANLIKEAEEMCSKFTREGTSAVENLNEMQCMWFQTECAQAYKAMNKFGEALKKCHEIERHFIEITDDQFDFHTYCMRKITLRSYVDLLKLEDVLRQHPFYFKAARIAIEIYLKLHDNPLTDENKEHEADTANMSDKELKKLRNKQRRAQKKAQIEEEKKNAEKEKQQRNQKKKKDDDDEEIGGPKEELIPEKLAKVETPLEEAIKFLTPLKNLVKNKIETHLFAFEIYFRKEKFLLMLQSVKRAFAIDSSHPWLHECMIRLFNTAVCESKDLSDTVRTVLKQEMNRLFGATNPKNFNETFLKRNSDSLPHRLSAAKMVYYLDPSSQKRAIELATTLDESLTNRNLQTCMEVLEALYDGSLGDCKEAAEIYRANCHKLFPYALAFMPPGYEEDMKITVNGDSSAEAEELANEI
chain 2: MNIRNARPEDLMNMQHCNLLCLPENYQMKYYFYHGLSWPQLSYIAEDENGKIVGYVLAKMEEDPDDVPHGHITSLAVKRSHRRLGLAQKLMDQASRAMIENFNAKYVSLHVRKSNRAALHLYSNTLNFQISEVEPKYYADGEDAYAMKRDLTQMADELRRHLELKEKGRHVVLGAIENKVESKGNSPPSSGEACREEKGLAAEDSGGDSKDLSEVSETTESTDVKDSSEASDSAS
Take B2: the “melting temperature of NatA with Naa50 added (NatA alone 44 °C)” value in series [6] was 46.6 °C.

B3: Saccharomyces cerevisiae NatA (ScNaa15/ScNaa10 complex), wild type (complex)
chain 1: MSRKRSTKPKPAAKIALKKENDQFLEALKLYEGKQYKKSLKLLDAILKKDGSHVDSLALKGLDLYSVGEKDDAASYVANAIRKIEGASASPICCHVLGIYMRNTKEYKESIKWFTAALNNGSTNKQIYRDLATLQSQIGDFKNALVSRKKYWEAFLGYRANWTSLAVAQDVNGERQQAINTLSQFEKLAEGKISDSEKYEHSECLMYKNDIMYKAASDNQDKLQNVLKHLNDIEPCVFDKFGLLERKATIYMKLGQLKDASIVYRTLIKRNPDNFKYYKLLEVSLGIQGDNKLKKALYGKLEQFYPRCEPPKFIPLTFLQDKEELSKKLREYVLPQLERGVPATFSNVKPLYQRRKSKVSPLLEKIVLDYLSGLDPTQDPIPFIWTNYYLSQHFLFLKDFPKAQEYIDAALDHTPTLVEFYILKARILKHLGLMDTAAGILEEGRQLDLQDRFINCKTVKYFLRANNIDKAVEVASLFTKNDDSVNGIKDLHLVEASWFIVEQAEAYYRLYLDRKKKLDDLASLKKEVESDKSEQIANDIKENQWLVRKYKGLALKRFNAIPKFYKQFEDDQLDFHSYCMRKGTPRAYLEMLEWGKALYTKPMYVRAMKEASKLYFQMHDDRLKRKSDSLDENSDEIQNNGQNSSSQKKKAKKEAAAMNKRKETEAKSVAAYPSDQDNDVFGEKLIETSTPMEDFATEFYNNYSMQVREDERDYILDFEFNYRIGKLALCFASLNKFAKRFGTTSGLFGSMAIVLLHATRNDTPFDPILKKVVTKSLEKEYSENFPLNEISNNSFDWLNFYQEKFGKNDINGLLFLYRYRDDVPIGSSNLKEMIISSLSPLEPHSQNEILQYYL
chain 2: MPINIRRATINDIICMQNANLHNLPENYMMKYYMYHILSWPEASFVATTTTLDCEDSDEQDENDKLELTLDGTNDGRTIKLDPTYLAPGEKLVGYVLVKMNDDPDQQNEPPNGHITSLSVMRTYRRMGIAENLMRQALFALREVHQAEYVSLHVRQSNRAALHLYRDTLAFEVLSIEKSYYQDGEDAYAMKKVLKLEELQISNFTHRRLKENEEKLEDDLESDLLE
In turn, B3 yielded an increase of the melting temperature of NatA on addition of Naa50 in series [4] of 7.4 °C.

A word on the Kd: it is the constant that tells how readily two partners part at equilibrium.
